Assay results: patent publication US20150361183A1 (IMPERIAL INNOVATIONS, published 2015)

Target: C3b (UniProt P01024 749-1663; P01024 23-667)
Assay: cell-based or functional assay

Sequence of C3b (P01024 749-1663 limits assumed, chain 1 of 2): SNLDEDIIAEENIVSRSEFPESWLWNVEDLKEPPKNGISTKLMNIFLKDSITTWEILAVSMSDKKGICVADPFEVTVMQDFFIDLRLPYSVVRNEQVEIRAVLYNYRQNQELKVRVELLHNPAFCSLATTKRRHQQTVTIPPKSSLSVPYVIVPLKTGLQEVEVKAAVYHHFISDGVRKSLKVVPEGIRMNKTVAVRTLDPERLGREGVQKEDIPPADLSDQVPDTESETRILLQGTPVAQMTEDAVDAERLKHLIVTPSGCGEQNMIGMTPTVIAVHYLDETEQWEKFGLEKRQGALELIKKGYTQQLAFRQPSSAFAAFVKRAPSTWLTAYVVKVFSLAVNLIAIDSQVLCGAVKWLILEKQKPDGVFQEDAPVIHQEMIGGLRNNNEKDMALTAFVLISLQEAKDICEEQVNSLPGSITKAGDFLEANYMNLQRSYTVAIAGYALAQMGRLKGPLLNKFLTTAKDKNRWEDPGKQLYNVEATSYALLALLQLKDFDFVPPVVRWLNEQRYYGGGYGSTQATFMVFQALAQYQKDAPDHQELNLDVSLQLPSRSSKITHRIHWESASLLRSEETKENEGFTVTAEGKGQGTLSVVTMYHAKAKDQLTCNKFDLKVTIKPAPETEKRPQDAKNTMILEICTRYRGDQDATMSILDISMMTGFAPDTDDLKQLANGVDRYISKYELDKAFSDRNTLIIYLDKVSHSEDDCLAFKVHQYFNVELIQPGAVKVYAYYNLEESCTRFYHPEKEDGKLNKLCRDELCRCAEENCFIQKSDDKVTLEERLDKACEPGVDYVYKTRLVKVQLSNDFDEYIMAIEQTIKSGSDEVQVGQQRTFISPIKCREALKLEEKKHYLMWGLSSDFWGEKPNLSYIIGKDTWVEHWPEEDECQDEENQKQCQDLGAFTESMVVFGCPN
Sequence of C3b (P01024 23-667 limits assumed, chain 2 of 2): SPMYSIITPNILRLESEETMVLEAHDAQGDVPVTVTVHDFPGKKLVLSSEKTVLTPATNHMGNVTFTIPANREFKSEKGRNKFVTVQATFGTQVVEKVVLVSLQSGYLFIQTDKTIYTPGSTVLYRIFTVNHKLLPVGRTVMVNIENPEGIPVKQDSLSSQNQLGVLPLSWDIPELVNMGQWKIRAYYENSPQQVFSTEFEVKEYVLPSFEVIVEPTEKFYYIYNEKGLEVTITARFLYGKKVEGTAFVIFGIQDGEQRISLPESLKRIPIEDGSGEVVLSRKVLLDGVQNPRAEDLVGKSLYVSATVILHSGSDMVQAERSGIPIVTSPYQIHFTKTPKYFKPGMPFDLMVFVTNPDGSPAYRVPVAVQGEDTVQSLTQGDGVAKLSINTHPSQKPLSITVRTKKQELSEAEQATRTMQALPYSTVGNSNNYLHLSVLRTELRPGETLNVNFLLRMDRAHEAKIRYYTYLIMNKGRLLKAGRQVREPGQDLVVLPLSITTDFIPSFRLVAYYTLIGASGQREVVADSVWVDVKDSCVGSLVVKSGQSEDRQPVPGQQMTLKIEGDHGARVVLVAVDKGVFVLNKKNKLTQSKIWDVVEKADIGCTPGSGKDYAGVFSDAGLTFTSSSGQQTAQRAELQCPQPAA

| Binder | IC50, dose-dependent increase of lysis in the CFH-dependent alternative pathway haemolytic assay (guinea-pig erythrocytes, 20% normal human serum plus CFH) [µM] |
| --- | --- |
| CFHR1345 (recombinant CFHR1 domains 3-5) (other) TSCVNPPTVQNAHILSRQMSKYPSGERVRYECRSPYEMFGDEEVMCLNGNWTEPPQCKDSTGKCGPPPPIDNGDITSFPLSVYAPASSVEYQCQNLYQLEGNKRITCRNGQWSEPPKCLHPCVISREIMENYNIALRWTAKQKLYLRTGESAEFVCKRGYRLSSRSHTLRTTCWDGKLEYPTCAKR | 3.6 |
| CFHR1 (complement factor H-related protein 1), purified from serum (other) EATFCDFPKINHGILYDEEKYKPFSQVPTGEVFYYSCEYNFVSPSKSFWTRITCTEEGWSPTPKCLRLCFFPFVENGHSESSGQTHLEGDTVQIICNTGYRLQNNENNISCVERGWSTPPKCRSTDTSCVNPPTVQNAHILSRQMSKYPSGERVRYECRSPYEMFGDEEVMCLNGNWTEPPQCKDSTGKCGPPPPIDNGDITSFPLSVYAPASSVEYQCQNLYQLEGNKRITCRNGQWSEPPKCLHPCVISREIMENYNIALRWTAKQKLYLRTGESAEFVCKRGYRLSSRSHTLRTTCWDGKLEYPTCAKR | 0.7 |
| CFHR234 (recombinant CFHR2 domains 3-4) (other) EKCGPPPPIDNGDITSFLLSVYAPGSSVEYQCQNLYQLEGNNQITCRNGQWSEPPKCLDPCVISQEIMEKYNIKLKWTNQQKLYSRTGDIVEFVCKSGYHPTKSHSFRAMCQNGKLVYPSCEEK | 4.7 |
